Patent US20200390902A1, “Antibody-Drug Conjugates Targeted at Human Aspartyl-(Asparaginyl)-B-Hydroxylase (HAAH)” (Panacea Pharmaceuticals, Inc., priority 2017, published 2020)

Legend:
[1] = biological target: T1, HAAH catalytic domain (human, UniProt Q12797); assay: ELISA on plates coated with HAAH catalytic domain; [Protein] 11.1 mg/ml
T1 sequence: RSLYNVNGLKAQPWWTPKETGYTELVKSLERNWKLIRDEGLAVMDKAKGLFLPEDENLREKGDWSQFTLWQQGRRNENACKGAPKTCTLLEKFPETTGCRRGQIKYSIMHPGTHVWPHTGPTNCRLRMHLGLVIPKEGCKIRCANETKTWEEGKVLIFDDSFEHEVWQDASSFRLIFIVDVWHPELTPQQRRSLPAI

[2] = biological target: T1, HAAH catalytic domain; assay: ELISA on plates coated with HAAH catalytic domain
Experimental: The catalytic domain of HAAH (HAAH-cat) is exposed at the surface of HAAH-expressing cancer cells. The binding of SNS622-MC-DM1 at different drug-antibody ratio (DAR) and pH to HAAH-cat was measured using IgG1λ as control. The plates were coated with HAAH by treating with […] HAAH catalytic domain overnight. Following blocking with 1% Non-Fat Dry Milk in PBS for one hour, the plates were incubated for 45 minutes at 37° C. with 11.1 mg/ml IgG1λ; 9.6 mg/ml SNS622; 4.8 mg/ml SNS622-MC-DM1 at DAR 2.5, pH 7.0; 5.9 mg/ml SNS622-MC-DM1 at DAR 2.5, pH8.0; 6.1 mg/ml SNS622-DM1 at DAR 5.0, pH 7.0; 5.7 mg/ml SNS622-MC-DM1 at DAR 5.0, pH8.0; 4.1 mg/ml SNS622-DM1 at DAR 10.0, pH7.0; or 4.4 mg/ml SNS622-MC-DM1 at DAR 10.0, pH8.0. Following 5 PBS rinses the plates were incubated with 1:100 goat anti-human IgG (8)-HRP for 30 minutes at 37° C., Following five PBS rinses TMB substrate was added, and after a 15-minute incubation at room temperature, Stop solution was added to terminate the reactions. The plates were read at 450 nm using a 96-well plate reader (ELx808, BioTek). The binding results are shown below in Table VI

[3] = biological target: H460 lysate; assay: ELISA on plates coated with H460 lysate, percent of loading amount bound
[4] = biological target: Human aspartyl (asparaginyl) β-hydroxylase (HAAH) (human) (UniProt Q12797)
[5] = biological target: T2, Human aspartyl (asparaginyl) β-hydroxylase (HAAH) (human, UniProt Q12797); assay: immunoassay on fixed H460 cells; printed as 'binding affinities'
T2 sequence: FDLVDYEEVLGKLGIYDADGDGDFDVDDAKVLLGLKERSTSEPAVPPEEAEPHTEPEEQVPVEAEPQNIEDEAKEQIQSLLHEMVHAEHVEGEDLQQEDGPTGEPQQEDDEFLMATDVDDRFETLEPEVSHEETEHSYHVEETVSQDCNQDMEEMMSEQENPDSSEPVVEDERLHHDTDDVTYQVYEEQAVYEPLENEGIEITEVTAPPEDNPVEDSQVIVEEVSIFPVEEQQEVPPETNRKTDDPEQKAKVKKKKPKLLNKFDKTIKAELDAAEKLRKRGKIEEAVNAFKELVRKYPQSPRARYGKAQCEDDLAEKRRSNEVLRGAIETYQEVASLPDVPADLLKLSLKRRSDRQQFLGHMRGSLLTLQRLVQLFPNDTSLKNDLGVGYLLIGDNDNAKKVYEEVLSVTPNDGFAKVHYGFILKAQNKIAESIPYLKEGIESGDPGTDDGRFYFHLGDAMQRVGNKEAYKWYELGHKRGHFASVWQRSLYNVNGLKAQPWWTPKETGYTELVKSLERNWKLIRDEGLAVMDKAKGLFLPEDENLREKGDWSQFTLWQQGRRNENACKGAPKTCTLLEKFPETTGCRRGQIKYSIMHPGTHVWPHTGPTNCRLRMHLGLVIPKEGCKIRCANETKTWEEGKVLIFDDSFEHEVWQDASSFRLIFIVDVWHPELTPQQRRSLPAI

[6] = biological target: Human aspartyl (asparaginyl) β-hydroxylase (HAAH) (human) (UniProt Q12797); remark: listed apart in the source
[7] = biological target: Human aspartyl (asparaginyl) β-hydroxylase (HAAH) (human) (UniProt Q12797); remark: listed apart in the source
[8] = biological target: Human aspartyl (asparaginyl) β-hydroxylase (HAAH) (human) (UniProt Q12797); remark: listed apart in the source
[9] = biological target: Human aspartyl (asparaginyl) β-hydroxylase (HAAH) (human) (UniProt Q12797); remark: listed apart in the source
[10] = biological target: T2, Human aspartyl (asparaginyl) …; assay: cell-based or functional assay

IgG1λ (non-specific monoclonal antibody)
[Average]* [1]: < 0.001 mg/mL
% Binding [2]: 0.01%
Percent binding [3]: < 0.002%

IgG1λ-MC-DM1 (non-specific ADC) (antibody)
Percent binding [3]: < 0.002%

B1: SNS622-MC-DM1 (antibody, V domains shown)
VH: QVQLQQSGPGLVKPSQTLSLTCAISGDSVSSNSAAWNWIRQSPSRGLEWLGRTYYRSKWYNDYAVSVKSRITINPDTSKNQFSLQLNSVTPEDTAVYYCARTGYSSSWVVNFDYWGQGTLVTVSS
VL: QPVLTQSPSASGTPGQRVTISCSGSSSNIGSNYVYWYQQLPGTAPKLLIYKNNQRPSGVPDRFSGSKSGTAASLAISGLQSEDEADYYCAAWDDSLRGYVFGTGTKLTVLG
modifications: MC-DM1 (maleimidocaproyl-mertansine) on cysteine thiols of reduced disulfide bonds, positions not given; MC-DM1 (maleimidocaproyl-mertansine) on cysteine thiols of reduced disulfide bonds, positions not given
LDH release, H460 cells, 32 nM, 72 h (× (over untreated H460 cells)) [4]: 39
Kd [5]: ~0.1 nM
IC50 of MTS, H460 cells, 72 h [6]: 64 nM
LC50 of LDH, H460 cells, 72 h [6]: 36 nM
MTS assay, MIA-PaCa-2 ASPH cells, 10, 20 or 50 nM, 48 h (% reduction of relative absorbance) [7]: 16
Percent binding [3]: 107%
EC50, H460 cell viability, MTS assay, 24 h [8]: 15 nM

B2: SNS622-DM1A2 (antibody, V domains shown)
VH: B1 VH
VL: B1 VL
modifications: MC-DM1 on cysteine thiols of reduced disulfide bonds, positions not given; reaction DAR 2.5:1, pH 8, final DAR 2.10; MC-DM1 on cysteine thiols of reduced disulfide bonds, positions not given
% Binding [2]: 84.8%

B3: SNS622-MC-vc-PAB-MMAE (antibody, V domains shown)
VH: B1 VH
VL: B1 VL
modifications: MC-vc-PAB-MMAE on cysteine thiols of reduced disulfide bonds, positions not given; reaction DAR 10:1, final DAR 6.31; MC-vc-PAB-MMAE on cysteine thiols of reduced disulfide bonds, positions not given
Kd [5]: ~0.2 nM
EC50, H460 cell viability, MTS assay, 24 h [8]: 60 nM
IC50, MOLM-14 cell viability, MTS assay, 24 h [9]: 50 nM

B4: SNS622-DM1B2 (antibody, V domains shown)
VH: B1 VH
VL: B1 VL
modifications: MC-DM1 on cysteine thiols of reduced disulfide bonds, positions not given; reaction DAR 5:1, pH 8, final DAR 3.36; MC-DM1 on cysteine thiols of reduced disulfide bonds, positions not given
% Binding [2]: 89.5%

B5: SNS622-MC-MMAE (antibody, V domains shown)
VH: B1 VH
VL: B1 VL
modifications: MC-MMAE on cysteine thiols of reduced disulfide bonds, positions not given; reaction DAR 10:1 gives final DAR 5.72 (also made at 2.5:1 and 5:1); MC-MMAE on cysteine thiols of reduced disulfide bonds, positions not given
IC50 of MTS, H460 cells, 72 h [10]: 48 nM

B6: SNS622-DM1A1 (antibody, V domains shown)
VH: B1 VH
VL: B1 VL
modifications: MC-DM1 on cysteine thiols of reduced disulfide bonds, positions not given; reaction DAR 2.5:1, pH 7, final DAR 2.00; MC-DM1 on cysteine thiols of reduced disulfide bonds, positions not given
% Binding [2]: 75.1%

B7: SNS622-MC-vc-PAB-DM1 (antibody, V domains shown)
VH: B1 VH
VL: B1 VL
modifications: MC-vc-PAB-DM1 on cysteine thiols of reduced disulfide bonds, positions not given; reaction DAR 10:1 gives final DAR 6.56 (also made at 2.5:1 and 5:1); MC-vc-PAB-DM1 on cysteine thiols of reduced disulfide bonds, positions not given
IC50 of MTS, H460 cells, 72 h [10]: 123 nM

B8: SNS622-DM1B1 (antibody, V domains shown)
VH: B1 VH
VL: B1 VL
modifications: MC-DM1 on cysteine thiols of reduced disulfide bonds, positions not given; reaction DAR 5:1, pH 7, final DAR 3.22; MC-DM1 on cysteine thiols of reduced disulfide bonds, positions not given
% Binding [2]: 81.2%

B9: SNS622 (antibody, V domains shown)
VH: B1 VH
VL: B1 VL
% Binding [2]: 97.6%
Percent binding [3]: 92%

B10: SNS622-DM1C2 (antibody, V domains shown)
VH: B1 VH
VL: B1 VL
modifications: MC-DM1 on cysteine thiols of reduced disulfide bonds, positions not given; reaction DAR 10:1, pH 8, final DAR 5.81; MC-DM1 on cysteine thiols of reduced disulfide bonds, positions not given
% Binding [2]: 80.5%

B11: SNS622-MC-PEG4-vc-PAB-DMEA-DUO (antibody, V domains shown)
VH: B1 VH
VL: B1 VL
modifications: MC-PEG4-vc-PAB-DMEA-duocarmycin on cysteine thiols of reduced disulfide bonds, positions not given; reaction DAR 2.2:1, final DAR 1.92:1; MC-PEG4-vc-PAB-DMEA-duocarmycin on cysteine thiols of reduced disulfide bonds, positions not given
Kd [5]: ~0.5 nM
EC50, H460 cell viability, MTS assay, 24 h [8]: 300 nM
IC50, MOLM-14 cell viability, MTS assay, 24 h [9]: 60 nM

B12: SNS622-DM1C1 (antibody, V domains shown)
VH: B1 VH
VL: B1 VL
modifications: MC-DM1 on cysteine thiols of reduced disulfide bonds, positions not given; reaction DAR 10:1, pH 7, final DAR 5.08; MC-DM1 on cysteine thiols of reduced disulfide bonds, positions not given
% Binding [2]: 11.7%
